T1: GST-NUB1L, Q9Y5A7-1
T1 chain: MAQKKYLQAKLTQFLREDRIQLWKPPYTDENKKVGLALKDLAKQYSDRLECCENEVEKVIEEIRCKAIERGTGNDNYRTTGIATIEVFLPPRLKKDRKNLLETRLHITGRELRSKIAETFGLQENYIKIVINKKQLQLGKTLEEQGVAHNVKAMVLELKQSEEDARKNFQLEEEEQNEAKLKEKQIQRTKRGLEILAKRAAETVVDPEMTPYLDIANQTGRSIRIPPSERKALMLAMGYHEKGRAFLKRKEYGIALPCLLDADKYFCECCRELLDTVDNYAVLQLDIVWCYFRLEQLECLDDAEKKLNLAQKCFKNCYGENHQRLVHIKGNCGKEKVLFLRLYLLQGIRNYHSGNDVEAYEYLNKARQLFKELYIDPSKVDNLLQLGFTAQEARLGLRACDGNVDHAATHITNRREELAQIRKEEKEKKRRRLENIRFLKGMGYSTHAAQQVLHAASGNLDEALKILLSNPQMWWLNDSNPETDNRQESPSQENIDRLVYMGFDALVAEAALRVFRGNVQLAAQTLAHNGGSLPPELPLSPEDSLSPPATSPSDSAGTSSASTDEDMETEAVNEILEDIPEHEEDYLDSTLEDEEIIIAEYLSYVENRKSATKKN

T2: GST-RAD23, P54727
T2 chain: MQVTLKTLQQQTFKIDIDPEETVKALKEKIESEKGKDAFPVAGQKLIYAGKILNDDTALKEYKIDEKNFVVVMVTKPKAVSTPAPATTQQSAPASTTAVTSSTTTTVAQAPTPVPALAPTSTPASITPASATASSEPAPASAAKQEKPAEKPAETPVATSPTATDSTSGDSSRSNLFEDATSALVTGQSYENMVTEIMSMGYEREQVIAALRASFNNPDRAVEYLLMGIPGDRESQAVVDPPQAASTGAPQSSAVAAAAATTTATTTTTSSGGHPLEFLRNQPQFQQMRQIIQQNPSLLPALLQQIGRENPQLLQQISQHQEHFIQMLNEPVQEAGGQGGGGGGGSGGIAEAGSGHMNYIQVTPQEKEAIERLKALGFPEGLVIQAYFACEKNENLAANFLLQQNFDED

B1: His6-RPN1 WT, Q13200 T2 (protein)
chain: MEEGGRDKAPVQPQQSPAAAPGGTDEKPSGKERRDAGDKDKEQELSEEDKQLQDELEMLVERLGEKDTSLYRPALEELRRQIRSSTTSMTSVPKPLKFLRPHYGKLKEIYENMAPGENKRFAADIISVLAMTMSGERECLKYRLVGSQEELASWGHEYVRHLAGEVAKEWQELDDAEKVQREPLLTLVKEIVPYNMAHNAEHEACDLLMEIEQVDMLEKDIDENAYAKVCLYLTSCVNYVPEPENSALLRCALGVFRKFSRFPEALRLALMLNDMELVEDIFTSCKDVVVQKQMAFMLGRHGVFLELSEDVEEYEDLTEIMSNVQLNSNFLALARELDIMEPKVPDDIYKTHLENNRFGGSGSQVDSARMNLASSFVNGFVNAAFGQDKLLTDDGNKWLYKNKDHGMLSAAASLGMILLWDAKGGLAAIDKYLYSSEDYIKSGALLACGIVNSGVRNECDPALALLSDYVLHNSNTMRLGSIFGLGLAYAGSNREDVLTLLLPVMGDSKSSMEVAGVTALACGMIAVGSCNGDVTSTILQTIMEKSETELKDTYARWLPLGLGLNHLGKGEAIEAILAALEVVSEPFRSFANTLVDVCAYAGSGNVLKVQQLLHICSEHFDSKEKEEDKDKKEKKDKDKKEAPADMGAHQGVAVLGIALIAMGEEIGAEMALRTFGHLLRYGEPTLRRAVPLALALISVSNPRLNILDTLSKFSHDADPEVSYNSIFAMGMVGSGTNNARLAAMLRQLAQYHAKDPNNLFMVRLAQGLTHLGKGTLTLCPYHSDRQLMSQVAVAGLLTVLVSFLDVRNIILGKSHYVLYGLVAAMQPRMLVTFDEELRPLPVSVRVGQAVDVVGQAGKPKTITGFQTHTTPVLLAHGERAELATEEFLPVTPILEGFVILRKNPNYDL
B2: His6-RPN1 WT, Q13200 T1; T2 (protein)
chain: MEEGGRDKAPVQPQQSPAAAPGGTDEKPSGKERRDAGDKDKEQELSEEDKQLQDELEMLVERLGEKDTSLYRPALEELRRQIRSSTTSMTSVPKPLKFLRPHYGKLKEIYENMAPGENKRFAADIISVLAMTMSGERECLKYRLVGSQEELASWGHEYVRHLAGEVAKEWQELDDAEKVQREPLLTLVKEIVPYNMAHNAEHEACDLLMEIEQVDMLEKDIDENAYAKVCLYLTSCVNYVPEPENSALLRCALGVFRKFSRFPEALRLALMLNDMELVEDIFTSCKDVVVQKQMAFMLGRHGVFLELSEDVEEYEDLTEIMSNVQLNSNFLALARELDIMEPKVPDDIYKTHLENNRFGGSGSQVDSARMNLASSFVNGFVNAAFGQDKLLTDDGNKWLYKNKDHGMLSAAASLGMILLWDAKGGLAAIDKYLYSSEDYIKSGALLACGIVNSGVRNECDPALALLSDYVLHNSNTMRLGSIFGLGLAYAGSNREDVLTLLLPVMGDSKSSMEVAGVTALACGMIAVGSCNGAVTSTILRTIMRKSETELKDTYARWLPLGLGLNHLGKGEAIEAILAALEVVSEPFRSFANTLVDVCAYAGSGNVLKVQQLLHICSEHFDSKEKEEDKDKKEKKDKDKKEAPADMGAHQGVAVLGIALIAMGEEIGAEMALRTFGHLLRYGEPTLRRAVPLALALISVSNPRLNILDTLSKFSHDADPEVSYNSIFAMGMVGSGTNNARLAAMLRQLAQYHAKDPNNLFMVRLAQGLTHLGKGTLTLCPYHSDRQLMSQVAVAGLLTVLVSFLDVRNIILGKSHYVLYGLVAAMQPRMLVTFDEELRPLPVSVRVGQAVDVVGQAGKPKTITGFQTHTTPVLLAHGERAELATEEFLPVTPILEGFVILRKNPNYDL

How the values were obtained:
[1] = target: T1, GST-NUB1L, Q9Y5A7-1; assay: Octet (BLI); details: chain shown with the change; GST-NUB1L on the sensor; His6-RPN1 variant in solution; parent: est. 0.58; read off a plot
[2] = target: T2, GST-RAD23, P54727; assay: Octet (BLI); details: chain shown with the change; GST-RAD23 on the sensor; GST control curve in the same panel reaches est. 0.13 nm; read off a plot

Row | Binder | response [1] [nm] | response [2] [nm]
1 | B1 | 0.28 | 0.25
2 | B2 | 0.18 | 
